Measurements reported in PMC6377682 (2019).
Each block holds one binder with its values, some of them ahead of it.

B1: human ASPP2^920-1120 (domain or fragment)
chain: MRVKFNPLALLLDSSLEGEFDLVQRIIYEVDDPSLPNDEGITALHNAVCAGHTEIVKFLVQFGVNVNAADSDGWTPLHCAASCNNVQVCKFLVESGAAVFAMTYSDMQTAADKCEEMEEGYTQCSQFLYGVQEKMGIMNKGVIYALWDYEPQNDDELPMKEGDCMTIIHREDEDEIEWWWARLNDKEGYVPRNLLGLYPRI
B2: human PP1β^6-327 (enzyme)
chain: LNVDSLITRLLEVRGCRPGKIVQMTEAEVRGLCIKSREIFLSQPILLELEAPLKICGDIHGQYTDLLRLFEYGGFPPEANYLFLGDYVDRGKQSLETICLLLAYKIKYPENFFLLRGNHECASINRIYGFYDECKRRFNIKLWKTFTDCFNCLPIAAIVDEKIFCCHGGLSPDLQSMEQIRRIMRPTDVPDTGLLCDLLWSDPDKDVQGWGENDRGVSFTFGADVVSKFLNRHDLDLICRAHQVVEDGYEFFAKRQLVTLFSAPNYCGEFDNAGGMMSVDETLMCSFQILKPSEKKAKYQYGGLNSGRPVTPPRTANPPKKR

Experiments:
[1] = biological target: B1; assay: ITC
[2] = biological target: human PP1γ1^7-323 (human, UniProt P36873 7-323); assay: BLI
[3] = biological target: B2; assay: BLI
[4] = biological target: T1, ASPP1^K1052E/S1055D (human, UniProt Q96KQ4 882-1090, K1052E | S1055D); assay: BLI
T1 sequence: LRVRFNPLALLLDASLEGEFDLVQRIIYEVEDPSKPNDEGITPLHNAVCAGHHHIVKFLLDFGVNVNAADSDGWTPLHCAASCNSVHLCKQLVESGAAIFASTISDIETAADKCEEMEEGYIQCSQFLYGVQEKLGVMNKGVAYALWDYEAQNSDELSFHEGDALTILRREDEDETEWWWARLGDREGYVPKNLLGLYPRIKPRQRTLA

[5] = biological target: T2, ASPP2^E1090K/D1093S (human, UniProt Q13625 920-1120, E1090K | D1093S); assay: BLI
T2 sequence: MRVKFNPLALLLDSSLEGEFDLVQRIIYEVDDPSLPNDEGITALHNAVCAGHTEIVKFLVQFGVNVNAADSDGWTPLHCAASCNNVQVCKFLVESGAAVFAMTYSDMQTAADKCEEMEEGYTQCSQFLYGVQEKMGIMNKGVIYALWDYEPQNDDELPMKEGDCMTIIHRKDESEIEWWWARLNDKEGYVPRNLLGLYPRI

[6] = biological target: T3, ASPP2^D1093S (human, UniProt Q13625 920-1120, D1093S); assay: BLI
T3 sequence: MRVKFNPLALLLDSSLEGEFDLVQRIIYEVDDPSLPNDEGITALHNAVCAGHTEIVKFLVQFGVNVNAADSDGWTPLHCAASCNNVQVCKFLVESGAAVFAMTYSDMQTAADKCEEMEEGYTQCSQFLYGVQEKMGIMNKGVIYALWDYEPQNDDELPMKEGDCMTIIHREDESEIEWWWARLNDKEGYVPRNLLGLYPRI

[7] = biological target: human PP1α^7-330 (human, UniProt P62136 7-330); assay: BLI
[8] = biological target: T4, ASPP2^D1091G/E1092P (human, UniProt Q13625 920-1120, D1091G | E1092P); assay: ITC
T4 sequence: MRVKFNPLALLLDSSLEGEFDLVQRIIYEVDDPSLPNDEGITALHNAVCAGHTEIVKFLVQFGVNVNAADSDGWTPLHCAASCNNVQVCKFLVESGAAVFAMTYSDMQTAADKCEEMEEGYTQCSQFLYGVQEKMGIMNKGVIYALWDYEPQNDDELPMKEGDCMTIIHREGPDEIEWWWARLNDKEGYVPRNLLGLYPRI

Kd [1]: 520 nM
Binder: KNKGKYGQFSGLNPGGRPITPPRNSAAAKK [PP1α^301-330 K327A peptide]

Kd [1]: 690 nM
Binder: PAEKKKPNATRPVTPPRGMITKQAKK [PP1γ1^298-323 C-tail peptide]

Binder: B1
Kd [2]: 195 nM | Kd [3]: 177 nM

Kd [1]: 342 nM
Binder: KNKGKYGQFSGLNPGGRPITPPRNSAKAAK [PP1α^301-330 K329A peptide]

Kd [1]: 965 nM
Binder: PSEKKAKYQYGGLNSGRPVTPPRTANPPKKR [PP1β^297-327 C-tail peptide]

Binder: B2
Kd [4]: 84.4 nM | Kd [5]: 178 nM | Kd [6]: 136 nM

Kd [1]: 326 nM
B3: PP1γ1^298-323 chimera with the PP1α C-terminal residues NSAKAKK (peptide)
chain: PAEKKKPNATRPVTPPRNSAKAKK
modifications: synthetic peptide, termini not stated; the end of the PPII motif (RPVTPPR) is taken as Arg314 by alignment with PP1α 317-323

Kd [1]: 326 nM
B4: PP1γ2^297-324 chimera with the PP1α C-terminal residues NSAKAKK (peptide)
chain: KPAEKKKPNATRPVTPPRNSAKAKK
modifications: synthetic peptide, termini not stated; γ2 is identical to γ1 through the PPII motif (end taken as Arg314 by alignment), so the canonical entry is used

Kd [7]: 2.4 nM | Kd [2]: 4.9 nM
B5: human iASPP^621-828 (domain or fragment)
chain: RRARLNPLVLLLDAALTGELEVVQQAVKEMNDPSQPNEEGITALHNAICGANYSIVDFLITAGANVNSPDSHGWTPLHCAASCNDTVICMALVQHGAAIFATTLSDGATAFEKCDPYREGYADCATYLADVEQSMGLMNSGAVYALWDYSAEFGDELSFREGESVTVLRRDGPEETDWWWAALHGQEGYVPRNYFGLFPRVKPQRSKV

Kd [7]: 59 nM | Kd [2]: 60.6 nM | Kd [3]: 66.5 nM
B6: human ASPP1^882-1090 (domain or fragment)
chain: LRVRFNPLALLLDASLEGEFDLVQRIIYEVEDPSKPNDEGITPLHNAVCAGHHHIVKFLLDFGVNVNAADSDGWTPLHCAASCNSVHLCKQLVESGAAIFASTISDIETAADKCEEMEEGYIQCSQFLYGVQEKLGVMNKGVAYALWDYEAQNSDELSFHEGDALTILRRKDESETEWWWARLGDREGYVPKNLLGLYPRIKPRQRTLA

Kd [1]: 326 nM
Binder: KNKGKYGQFSGLNPGGRPITPPRNSAKAKA [PP1α^301-330 K330A peptide]

Kd [1]: 2150 nM
Binder: KPAEKKKPNATRPVTPPRVASGLNPSIQ [PP1γ2^297-324 C-tail peptide]

Kd [1]: 200 nM
B7: PP1β^297-327 chimera with the PP1α C-terminal residues NSAKAKK (peptide)
chain: PSEKKAKYQYGGLNSGRPVTPPRNSAKAKK
modifications: synthetic peptide, termini not stated; the end of the PPII motif (RPVTPPR) is taken as Arg319 by alignment with PP1α 317-323

Kd [8]: 172 nM
Binder: KNKGKYGQFSGLNPGGRPITPPRNSAKAKK [PP1α^301-330 C-tail peptide]
